“And” between values parts separate entries of the source, which are not always exact repeats. Identical values can stand only once.
Columns and labels:
human BACE2 = target: T1, human BACE2 (Homo sapiens, UniProt Q9Y5Z0); assay: MCE assay, BACE2; format: biochemical
T1 construct: the extracellular domain of human BACE2 enzyme (5 nM)
T1 sequence (Q9Y5Z0 63-473 limits assumed): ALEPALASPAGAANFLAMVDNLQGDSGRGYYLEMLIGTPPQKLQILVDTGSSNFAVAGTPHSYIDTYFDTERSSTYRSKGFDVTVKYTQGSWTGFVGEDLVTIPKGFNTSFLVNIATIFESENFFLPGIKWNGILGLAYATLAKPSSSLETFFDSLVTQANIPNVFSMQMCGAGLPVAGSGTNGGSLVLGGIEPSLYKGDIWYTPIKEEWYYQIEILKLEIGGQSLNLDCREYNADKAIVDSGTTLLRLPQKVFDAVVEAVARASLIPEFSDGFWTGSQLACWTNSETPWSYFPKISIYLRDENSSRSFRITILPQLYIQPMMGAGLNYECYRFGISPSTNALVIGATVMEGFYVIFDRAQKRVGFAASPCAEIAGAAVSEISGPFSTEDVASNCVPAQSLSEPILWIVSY
Procedure: (§1) The MCE assay reactions were carried out in a final volume of 20 μL per well in a 384-well microplate. A standard enzymatic reaction, initiated by the addition of 10 μL 2× substrate to 5 μL of 4× enzyme and […] of 4× compound, containing 12 nM human BACE1 extracellular domain, […] amyloid precursor protein beta secretase active site peptide (FAM-[…]-CONH2 (SEQ ID NO:55)), 50 mM NaOAc pH 4.4 and 0.1% CHAPS. The same reaction conditions were used for the extracellular domain of human BACE2 enzyme (5 nM) and the extracellular domain of Cathepsin D (6 nM, Calbiochem®). After incubation for 60 minutes at ambient temperature, the product and substrate in each reaction were separated using a 12-sipper microfluidic chip analyzed on an LC3000® (both, Caliper Life Sciences). The separation of product and substrate was optimized by choosing voltages and pressure using the manufacturer's optimization software. The separate buffer contained 100 mM HEPES pH 7.2, 0.015% Brij-35, 0.1% coating reagent #3, 10 mM EDTA and 5% DMSO. The separation conditions used a downstream voltage of −500V, an upstream voltage of −2250V and a screening pressure of −1.2 psi. The product and substrate fluorescence was excited at a wavelength of 488 nm and detected at a wavelength of 530 nm. Substrate conversion was calculated from the electropherogram using HTS Well Analyzer software (Caliper Life Sciences).

Cathepsin D = target: T2, Cathepsin D (Homo sapiens, UniProt P07339); assay: MCE assay, cathepsin D; format: biochemical
T2 construct: the extracellular domain of Cathepsin D (6 nM, Calbiochem®); purchased Calbiochem
Procedure: as §1

Guinea pig BACE1 = Guinea pig BACE1 (Cavia porcellus, UniProt Q1KLR6); assay: BIAcore SPR binding kinetics, guinea pig BACE1; details: guinea pig BACE1, pH 7.0
[1] = test system: 293-HEK cells stably expressing wild-type human amyloid precursor protein; assay: Aβ1-40 production in 293-HEK cells expressing APP; format: cell-based
Procedure: To determine whether the observed in vitro inhibitory action of the anti-BACE1 antibodies on APP processing was also present in a cellular context, […]. The ability of the antibodies to inhibit Aβ1-40 production in 293-HEK cells stably expressing wild-type human amyloid precursor protein was assessed as follows. 293-APP^WT cells were seeded overnight at a density of 3×10^4 cells/well in a 96-well plate. […] of fresh media (DMEM+10% FBS) containing an anti-BACE1 antibody or a control IgG1 antibody was incubated with the cells for 24 hours at 37° C. A tricyclic small molecule BACE1 inhibitor (BACE1 SMI) was also used as a control ((Compound 8e—Charrier, N. et al. J. Med. Chem. 51:3313-3317 (2008)). The cellular media was harvested and assayed for the presence of Aβ1-40 using a Aβ1-40 HTRF® assay (CisBio) according to the manufacturer's instructions. Aβ1-40 values were normalized for cell viability, as determined using the CellTiter-Glo Luminescent Cell Viability Assay (Promega). Experiments were performed at least three times, and each point in each experiment was repeated in duplicate. Data was plotted using a four-parameter non-linear regression curve-fitting program (Kaleidagraph, Synergy Software).

[2] = Antibody concentration in brain of hAPP transgenic mice; format: in vivo, mouse
Procedure: Briefly, 5-month old human APP-expressing mice were treated with 30 mg/kg or 100 mg/kg YW412.8.31 antibody or vehicle by intra-peritoneal injection every four days for a total of three doses (i.e., at days 1, 5, and 9). Animals were euthanized two hours post the final dose. Serum, plasma, and brains were harvested and processed. Plasma, cortex and hippocampus were analyzed for levels of soluble Aβ1-40 and Aβ1-42 using an Amyloid beta (Aβ) ELISA test kit per manufacture's instructions (The Genetics Company). Pharmacokinetic analysis was performed on serum and brain homogenates.
Similar experiments were also performed in which YW412.8.31 anti-BACE1 antibody was delivered systemically or directly into hAPP transgenic mice brains by continuous ICV infusion. For ICV delivery, antibody was delivered continuously for 7 days via an Alzet osmotic minipump (model 2001) implanted unilaterally. The amount of YW412.8.31 antibody delivered was 0.041 mg/day (low dose) or 0.41 mg/day (high dose); 0.33 mg/day Control IgG was delivered to the control group. At euthanasia, plasma, cortex, and hippocampus were harvested and analyzed for levels of soluble Aβ1-40 and Aβ1-42 by ELISA (The Genetics Company) following manufacturer's instructions.
Total anti-BACE1 antibody concentrations in mouse serum and brain samples were measured as follows. Antibody concentrations in mouse serum and brain samples were measured using an enzyme-linked immunosorbent assay (ELISA). NUNC 384 well Maxisorp immunoplates (Neptune, N.J.) were coated with F(ab′)2 fragment of donkey anti-human IgG, Fc fragment specific polyclonal antibody (Jackson ImmunoResearch, West Grove, Pa.) overnight at 4° C. Plates were blocked with phosphate-buffered saline (PBS) containing 0.5% bovine serum albumin (BSA) for 1 hour at room temperature the next day. Each antibody (Control IgG and anti-BACE1) was used as a standard to quantify the respective antibody concentrations. After washing plates with PBS containing 0.05% Tween 20 using a microplate washer (Bio-Tek Instruments, Inc., Winooski, Vt.), standards and samples diluted in PBS containing 0.5% BSA, 0.35 M NaCl, 0.25% CHAPS, 5 mM EDTA, 0.05% Tween 20 and 15 ppm Proclin were incubated on plates for 2 hours at room temperature with mild agitation. Bound antibody was detected with horseradish peroxidase conjugated F(ab′)2 goat anti-human IgG, Fc specific polyclonal antibody (Jackson ImmunoResearch). Finally, plates were developed using the substrate 3,3′,5,5′-tetramethyl benzidine (TMB) (KPL, Inc., Gaithersburg, Md.). Absorbance was measured at a wavelength of 450 nm with a reference of 630 nm on a Multiskan Ascent reader (Thermo Scientific, Hudson, N.H.). Concentrations were determined from the standard curve using a four-parameter non-linear regression program.

Guinea pig BACE1, sequence (Q1KLR6 46-473): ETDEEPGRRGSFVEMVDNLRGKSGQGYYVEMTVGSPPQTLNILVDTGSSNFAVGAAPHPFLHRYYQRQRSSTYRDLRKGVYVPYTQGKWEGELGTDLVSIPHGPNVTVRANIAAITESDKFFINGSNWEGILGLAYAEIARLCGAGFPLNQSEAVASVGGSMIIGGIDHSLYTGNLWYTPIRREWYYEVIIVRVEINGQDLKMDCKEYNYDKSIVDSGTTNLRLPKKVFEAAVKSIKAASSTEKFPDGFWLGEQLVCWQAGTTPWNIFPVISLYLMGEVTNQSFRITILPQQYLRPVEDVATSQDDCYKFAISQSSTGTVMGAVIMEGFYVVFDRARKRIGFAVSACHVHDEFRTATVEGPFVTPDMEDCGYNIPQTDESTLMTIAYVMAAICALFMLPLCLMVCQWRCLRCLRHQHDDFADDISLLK
T2 sequence (P07339 65-412, species assumed): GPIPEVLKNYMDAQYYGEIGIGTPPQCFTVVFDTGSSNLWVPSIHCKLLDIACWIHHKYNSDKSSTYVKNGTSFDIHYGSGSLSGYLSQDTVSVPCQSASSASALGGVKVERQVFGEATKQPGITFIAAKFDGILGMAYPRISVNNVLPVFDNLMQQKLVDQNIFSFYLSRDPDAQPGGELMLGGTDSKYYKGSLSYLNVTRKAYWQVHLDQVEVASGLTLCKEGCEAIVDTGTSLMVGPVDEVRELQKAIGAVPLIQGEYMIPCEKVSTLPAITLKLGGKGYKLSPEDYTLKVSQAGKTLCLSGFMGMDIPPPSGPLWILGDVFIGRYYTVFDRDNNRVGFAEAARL

B1: YW412.8.31: affinity matured form of YW412.8 anti-BACE1 antibody (antibody, V domains shown)
VH: EVQLVESGGGLVQPGGSLRLSCAASGFTFLGYGIHWVRQAPGKGLEWVGWISPAGGSTDYADSVKGRFTISADTSKNTAYLQMNSLRAEDTAVYYCARGPFSPWVMDYWGQGTLVTVSS
VL: DIQMTQSPSSLSASVGDRVTITCRASQDVSTAVAWYQQKPGKAPKLLIYSASFLYSGVPSRFSGSGSGTDFTLTISSLQPEDFATYYCQQFPTYLPTFGQGTKVEIK
With B1 the “inhibition of human BACE2” value (human BACE2) was “did not inhibit”, the “inhibition of cathepsin D” value (Cathepsin D) was “did not inhibit” and the KOFF (Guinea pig BACE1) was 2.7 × 10^−4 S^−1. For the same molecule, the KON (Guinea pig BACE1) was 1.0 × 10^5 M^−1S^−1, the “inhibition of Aβ1-40 production” value ([1]; 24 hours, compared to non-BACE1 IgG (Xolair)) was “inhibited” and the “maximum reduction of Aβ1-40 production” value ([1]; APP-expressing 293 cells) was roughly 90%. For the same molecule, the “ANTIBODY CONCENTRATION IN BRAIN” value ([2]; systemic delivery 30 mg/kg) was 0.7 μG/G, the “antibody concentration in brain” value ([2]; systemic delivery 30 mg/kg) was 4.8 ± 3.6 nM and 4.8 nM and the “ANTIBODY CONCENTRATION IN BRAIN” value ([2]; systemic delivery 100 mg/kg) was 2.1 μG/G. For the same molecule, the “antibody concentration in brain” value ([2]; systemic delivery 100 mg/kg) was 14.0 ± 9.3 nM and 14 nM.
